B1: Regulatory protein RapF (Bacillus subtilis), P71002 (parent)
chain: MTGVISSSSIGEKINEWYMYIRRFSIPDAEYLRREIKQELDQMEEDQDLHLYYSLMEFRHNLMLEYLEPLEKMRIEEQPRLSDLLLEIDKKQARLTGLLEYYFNFFRGMYELDQREYLSAIKFFKKAESKLIFVKDRIEKAEFFFKMSESYYYMKQTYFSMDYARQAYEIYKEHEAYNIRLLQCHSLFATNFLDLKQYEDAISHFQKAYSMAEAEKQPQLMGRTLYNIGLCKNSQSQYEDAIPYFKRAIAVFEESNILPSLPQAYFLITQIHYKLGKIDKAHEYHSKGMAYSQKAGDVIYLSEFEFLKSLYLSGPDEEAIQGFFDFLESKMLYADLEDFAIDVAKYYHERKNFQKASAYFLKVEQVRQLIQGGVSLYEIEV
partner: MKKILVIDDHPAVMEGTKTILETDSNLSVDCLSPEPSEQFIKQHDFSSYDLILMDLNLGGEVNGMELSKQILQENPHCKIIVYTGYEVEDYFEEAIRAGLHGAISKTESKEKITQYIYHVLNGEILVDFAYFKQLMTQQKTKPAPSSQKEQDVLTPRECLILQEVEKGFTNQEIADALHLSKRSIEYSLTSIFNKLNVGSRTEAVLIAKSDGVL
B2: Transcriptional regulatory protein ComA (Bacillus subtilis), P14204 (parent)
chain: B1 partner
partner: B1 chain

Variants of: B1
Details: with cmpa_bacsu comA

| Variant | effect of a mutation on the interaction |
| --- | --- |
| MTGVISSSSIGEKINEWYMYIRRFSIADAEYLRREIKQELDQMEEDQDLHLYYSLMEFRHNLMLEYLEPLEKMRIEEQPRLSDLLLEIDKKQARLTGLLEYYFNFFRGMYELDQREYLSAIKFFKKAESKLIFVKDRIEKAEFFFKMSESYYYMKQTYFSMDYARQAYEIYKEHEAYNIRLLQCHSLFATNFLDLKQYEDAISHFQKAYSMAEAEKQPQLMGRTLYNIGLCKNSQSQYEDAIPYFKRAIAVFEESNILPSLPQAYFLITQIHYKLGKIDKAHEYHSKGMAYSQKAGDVIYLSEFEFLKSLYLSGPDEEAIQGFFDFLESKMLYADLEDFAIDVAKYYHERKNFQKASAYFLKVEQVRQLIQGGVSLYEIEV [P27A] | decreasing interaction |
| MTGVISSSSIGEKINEWYMYIRRFSIPDAEYLRREIKQELDQMEEDQDLHLYYSLMEFRHNLMLEYAEPLEKMRIEEQPRLSDLLLEIDKKQARLTGLLEYYFNFFRGMYELDQREYLSAIKFFKKAESKLIFVKDRIEKAEFFFKMSESYYYMKQTYFSMDYARQAYEIYKEHEAYNIRLLQCHSLFATNFLDLKQYEDAISHFQKAYSMAEAEKQPQLMGRTLYNIGLCKNSQSQYEDAIPYFKRAIAVFEESNILPSLPQAYFLITQIHYKLGKIDKAHEYHSKGMAYSQKAGDVIYLSEFEFLKSLYLSGPDEEAIQGFFDFLESKMLYADLEDFAIDVAKYYHERKNFQKASAYFLKVEQVRQLIQGGVSLYEIEV [L67A] | disrupting interaction |
| MTGVISSSSIGEKINEWYMYIRRFSIPAAEYLRREIKQELDQMEEDQDLHLYYSLMEFRHNLMLEYLEPLEKMRIEEQPRLSDLLLEIDKKQARLTGLLEYYFNFFRGMYELDQREYLSAIKFFKKAESKLIFVKDRIEKAEFFFKMSESYYYMKQTYFSMDYARQAYEIYKEHEAYNIRLLQCHSLFATNFLDLKQYEDAISHFQKAYSMAEAEKQPQLMGRTLYNIGLCKNSQSQYEDAIPYFKRAIAVFEESNILPSLPQAYFLITQIHYKLGKIDKAHEYHSKGMAYSQKAGDVIYLSEFEFLKSLYLSGPDEEAIQGFFDFLESKMLYADLEDFAIDVAKYYHERKNFQKASAYFLKVEQVRQLIQGGVSLYEIEV [D28A] | disrupting interaction |
| MTGVISSSSIGEKINEWYMYIRRFSIPDAEYLRREIKQELDQMEEDQDLHLYYSLMEFRHNLMLEYLEPLEKMRIEEAPRLSDLLLEIDKKQARLTGLLEYYFNFFRGMYELDQREYLSAIKFFKKAESKLIFVKDRIEKAEFFFKMSESYYYMKQTYFSMDYARQAYEIYKEHEAYNIRLLQCHSLFATNFLDLKQYEDAISHFQKAYSMAEAEKQPQLMGRTLYNIGLCKNSQSQYEDAIPYFKRAIAVFEESNILPSLPQAYFLITQIHYKLGKIDKAHEYHSKGMAYSQKAGDVIYLSEFEFLKSLYLSGPDEEAIQGFFDFLESKMLYADLEDFAIDVAKYYHERKNFQKASAYFLKVEQVRQLIQGGVSLYEIEV [Q78A] | decreasing interaction |
| MTGVISSSSIGEKINEWYMYIRRASIPDAEYLRREIKQELDQMEEDQDLHLYYSLMEFRHNLMLEYLEPLEKMRIEEQPRLSDLLLEIDKKQARLTGLLEYYFNFFRGMYELDQREYLSAIKFFKKAESKLIFVKDRIEKAEFFFKMSESYYYMKQTYFSMDYARQAYEIYKEHEAYNIRLLQCHSLFATNFLDLKQYEDAISHFQKAYSMAEAEKQPQLMGRTLYNIGLCKNSQSQYEDAIPYFKRAIAVFEESNILPSLPQAYFLITQIHYKLGKIDKAHEYHSKGMAYSQKAGDVIYLSEFEFLKSLYLSGPDEEAIQGFFDFLESKMLYADLEDFAIDVAKYYHERKNFQKASAYFLKVEQVRQLIQGGVSLYEIEV [F24A] | disrupting interaction |

Variants of: B2
Details: with rapf_bacsu rapF

| Variant | effect of a mutation on the interaction |
| --- | --- |
| MKKILVIDDHPAVMEGTKTILETDSNLSVDCLSPEPSEQFIKQHDFSSYDLILMDLNLGGEVNGMELSKQILQENPHCKIIVYTGYEVEDYFEEAIRAGLHGAISKTESKEKITQYIYHVLNGEILVDFAYFKQLMTQQKTKPAPSSQKEQDVLTPRECLILQEVEKGFTNQEIADALHLSKRSIEYSLTSIFAKLNVGSRTEAVLIAKSDGVL [N194A] | decreasing interaction |
| MKKILVIDDHPAVMEGTKTILETDSNLSVDCLSPEPSEQFIKQHDFSSYDLILMDLNLGGEVNGMELSKQILQENPHCKIIVYTGYEVEDYFEEAIRAGLHGAISKTESKEKITQYIYHVLNGEILVDFAYFKQLMTQQKTKPAPSSQKEQDVLTPRECLILQEVEKGFTNQEIADALHLSKRSIEASLTSIFNKLNVGSRTEAVLIAKSDGVL [Y187A] | decreasing interaction |
| MKKILVIDDHPAVMEGTKTILETDSNLSVDCLSPEPSEQFIKQHDFSSYDLILMDLNLGGEVNGMELSKQILQENPHCKIIVYTGYEVEDYFEEAIRAGLHGAISKTESKEKITQYIYHVLNGEILVDFAYFKQLMTQQKTKPAPSSQKEQDVLTPRECLILQEVEKGFTNQEIADALHLSKRSIEYSLASIFNKLNVGSRTEAVLIAKSDGVL [T190A] | decreasing interaction |
| MKKILVIDDHPAVMEGTKTILETDSNLSVDCLSPEPSEQFIKQHDFSSYDLILMDLNLGGEVNGMELSKQILQENPHCKIIVYTGYEVEDYFEEAIRAGLHGAISKTESKEKITQYIYHVLNGEILVDFAYFKQLMTQQKTKPAPSSQKEQDVLTPRECLILQEVEKGFTNQEIADALHLSKASIEYSLTSIFNKLNVGSRTEAVLIAKSDGVL [R183A] | decreasing interaction |

From IntAct's records for PubMed 22215984
